From paper PMC6175577, “BRCT domains of the DNA damage checkpoint proteins TOPBP1/Rad4 display distinct specificities for phosphopeptide ligands” (eLife, 2018)
Changes are numbered by the printed parent chain. In names and notes the source's numbering stands. Blank lines part the entries; values can stand above or below the binder they belong to.

What was measured:
Assay in all cases: fluorescence polarisation
[1] = molecular target: T1, Mdb1 pT113 fluorescein-labelled phosphopeptide; details: chain shown with the change; point at 40 µM protein; parent: est. 140; read off a plot
T1 chain: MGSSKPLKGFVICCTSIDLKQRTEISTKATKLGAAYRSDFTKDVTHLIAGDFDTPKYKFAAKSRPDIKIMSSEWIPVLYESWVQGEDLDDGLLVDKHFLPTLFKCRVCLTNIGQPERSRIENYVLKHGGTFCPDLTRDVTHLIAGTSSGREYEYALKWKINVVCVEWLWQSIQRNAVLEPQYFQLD

[2] = molecular target: T2, Treslin pS1001 fluorescein-labelled phosphopeptide; details: for response: chain shown with the change, point at 40 µM protein, parent: est. 83, read off a plot; for Kd: chain shown with the change;, parent: 0.60 ± 0.03 µM
T2 chain: GYGDIGVVEESPEKGDEI

[3] = molecular target: T3, Treslin pT969 fluorescein-labelled phosphopeptide; details: for response: chain shown with the change, point at 40 µM protein, parent: est. 70, read off a plot
T3 chain: GYGLTKSVAETPVHKQIS

[4] = molecular target: T4, Mdb1 pT113 fluorescein-labelled phosphopeptide; details: chain shown with the change; point at 40 µM protein; parent: est. 140; read off a plot
T4 chain: T1 chain with K56E

[5] = molecular target: T5, Treslin pT969 fluorescein-labelled phosphopeptide; details: chain shown with the change; point at 40 µM protein; parent: est. 70; read off a plot
T5 chain: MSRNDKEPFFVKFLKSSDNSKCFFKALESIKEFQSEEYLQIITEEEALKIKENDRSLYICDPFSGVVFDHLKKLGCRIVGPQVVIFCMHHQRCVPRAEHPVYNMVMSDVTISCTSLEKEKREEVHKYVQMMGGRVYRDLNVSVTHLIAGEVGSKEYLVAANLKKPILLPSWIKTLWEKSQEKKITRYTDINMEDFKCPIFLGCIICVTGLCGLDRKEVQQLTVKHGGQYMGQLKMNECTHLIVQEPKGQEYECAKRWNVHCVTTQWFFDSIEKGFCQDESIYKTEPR

[6] = molecular target: T6, Treslin pS1001 fluorescein-labelled phosphopeptide; details: chain shown with the change; point at 40 µM protein; parent: est. 83; read off a plot
T6 chain: T5 chain

B3: TOPBP1-BRCT0,1,2 segment, wild type (recombinant, fluorescence polarisation) K155E (protein)
chain: T5 chain with E250K
response [2]: 68 millidegrees
Kd [2]: 0.73 µM
response [3]: 46 millidegrees
Kd ([3]; chain shown with the change;, parent: 0.94 ± 0.06 µM): 1 µM

B5: TOPBP1-BRCT0,1,2 segment, wild type (recombinant, fluorescence polarisation) K155E; K250E (peptide)
chain: GYGLTKSVAETPVHKQIS
response [5]: 0 millidegrees

B6: TOPBP1-BRCT0,1,2 segment, wild type (recombinant, fluorescence polarisation) K155E; K250E (peptide)
chain: GYGDIGVVEESPEKGDEI
response [6]: 12 millidegrees

Other lines, results leading:

response [1]: 92 millidegrees
B1: Rad4-BRCT1,2 segment, wild type (recombinant, fluorescence polarisation), P32372 K151E (peptide)
chain: GYGGVMTVPNTPQKPNLQ

response [2]: 41 millidegrees
Kd [2]: 0.35 µM
response [3]: 30 millidegrees
B2: TOPBP1-BRCT0,1,2 segment, wild type (recombinant, fluorescence polarisation) K250E (protein)
chain: T5 chain with E155K

response [4]: 30 millidegrees
B4: Rad4-BRCT1,2 segment, wild type (recombinant, fluorescence polarisation), P32372 K56E; K151E (peptide)
chain: GYGGVMTVPNTPQKPNLQ
